{
  "source": "paper doi:10.1101/2025.03.26.645513v1",
  "proteins": {"B1": {"name": "SaCysK (Staphylococcus aureus subsp. aureus N315) (protein)", "chain": "MAQKPVDNITQIIGGTPVVKLRNVVDDNAADVYVKLEYQNPGGSVKDRIALAMIEKAEREGKIKPGDTIVEPTSGNTGIGLAFVCAAKGYKAVFTMPETMSQERRNLLKAYGAELVLTPGSEAMKGAIKKAKELKEEHGYFEPQQFENPANPEVHELTTGPELLQQFEGKTIDAFLAGVGTGGTLSGVGKVLKKEYPNIEIVAIEPEASPVLSGGEPGPHKLQGLGAGFIPGTLNTEIYDSIIKVGNDTAMEMSRRVAKEEGILAGISSGAAIYAAIQKAKELGKGKTVVTVLPSNGERYLSTPLYSFDD"}},
  "substrate": "CC(=O)OC[C@H](N)C(=O)O",
  "assay": "purified protein",
  "details": "15 mM Na2S, MOPS, 37 °C, no glycerol",
  "data": [
    {"protein": "B1", "values": [
      {"measurement": "Km", "value": "1378 ± 592", "unit": "µM"}
    ]}
  ]
}
